From the DeepSol protein solubility set

Test: soluble on expression in E. coli; label from the status in PepcDB or PDB records
For “SLMHHALHIKNGIVIDPKNGVKAEKMDIFVKNGKIVEESEVKGEDVKVIDANNKLVVAGGVDMHAHIAGSKINTGRTMRPEEMRVVRNIAGKFRAAVGRVLLTSPAIGYEYAKMGYTISIEAAQPPIGSPHTHEELDAIPMIDKAALPVFGNWHFVLKYVAEKDMEKLKAFIAWAIERTKGFGVKVVNPGGVGAWMYGGNVTSLDDQVPGFNVTPREIITSLVKATEELQLNHSVHLHCNRLGVPGNYETTVESIKLVDGIRNDARQVLHVTHVQFNAYAGDSWRTVASGAEAIAKTVNSMDNVTIDMGQPIFGHATAMTGDAPFQFTLHKLTGSRWSNKDSEIEGGAGIVPIAYLPKNPVHALQWAIGLELGLLIDSDKVVLTTDYPNGGPFTEYPYIMAMLMSKKMREGELERVSPFVQKASNLPAIDTEKTLEEVIHMTRSLPARVLGLPQKGHLGVGADADIAIYDLNPLDVDTSNDFEKVYKAFKTAVYTIKDGQILVKDGELVDEYWGRTYWVDATGKADMEAIKDDLNEMFSKYYTVELQNYGVEERWLRKPERIVI”, the “soluble on expression in E. coli” value was “not soluble”. With “SLNKIKAFYNLPMAYYRLSNFLKHYIDDNTIIICIGTDRCIGDCLGPMVGTMLKEKFFPLNVYGTISEPIHALNIDKKLYKIKKDHTNSTIIGIDACLGDTENIGEIQVRDYAIHPGKGVGKSLPDVGEVSIVGIVDSCESSELFTNRNIRLNLIFEMSKVIVQTIIHSYYLHKTFSDSIFPDSASTLK” the “soluble on expression in E. coli” value was “soluble”. With “SLPHPAPGPADAEDPRLAEVMAAVRSSRRYQSVAPETVRRLAANALVASRGDLAEAVKRTKRSLHEVFGAYLPSPPKYDALLRQLRDAVDAGDDEAVRAVLHRAMSTHASTRERLPILEEFYREVFARLDAPTSVRDLACGMNPLAAPWMPGSDAFTYHASDIDTRLTEFLAAALETLGVAHDVRVRDLMTGVGEVATDVTLLLKTLPCIEAQGRGQGWDLIDAIRSPVVVVSFPTKSLGQRSKGMFNTYSANFGAWLENRPHDVEQVEFRNELVYFVRKNA” the “soluble on expression in E. coli” value was “soluble”. In the case of “SLPVINGAHVISMKNYTLVSDAYGEKGVKKVYEDEYLICENLKSFNKNLHPNFNFACFCLFDGHNGKNTAMFLKRNLAQELSNSFLEMQNTYDSSLPIPDHFIKISVNNTCKRIDERIAQEYPNSRDGATCVIVLIKDEYAYIINIGDSCAYLCRYLNNSNQAIELVDIHKPWVITEKERIIKHGGTIENGRVNDIIDVTRSFGDLSLKKYGLLCTGTFKKFKINSDDNFIILGTDGFFGSVDINYVINEITNLSKKEERLVNVEKKKTVFDAKSICNIMVEHAIVDKKSQDNVTVVLIKFLHKKGNSSTTTTTTEIRLLTKPERKLSWLLPPLSNN”, the “soluble on expression in E. coli” value is reported as “soluble”. For “SLRKERARSAEEPWTQNQQKLLELALQQYPRGSSDCWDKIARCVPSKSKEDCIARYKLLV”, the “soluble on expression in E. coli” value was “soluble”. For “SLRQDELKELERAIAEITEIAEGFGLDFYPMRYEICPADILYTFGAYGMPTRFSHWSFGKQFYKMKLHYDLGLSKIYELVINSDPCYAFLLDTNTLIQNKLIVAHVLAHSDFFKNNVRFSNTKRDMVESMAATAERIKHYEHQYGKLEVEKFLDAVLAIQEHIDPSLLRPKLSWTWEDTEVYEEEEPPKTSTPYDDLWSLDERDKLKTPPRKKRRKFPPQPEKDVLLFIEEYSRELEDWQRDILTMMREEMLYFWPQLETKIMNEG”, the “soluble on expression in E. coli” value was “not soluble”. For “SLRTYFAQRAEMEQLAATEAMLRRQIADLEEQQVKLADPAYIAAQARERLGFVMPGDIPFQVQLPSTPLAPPQPGSDAATATNNEPWYTALWHTIADDPHLPPAAPPAPEPGRPGPLPPASPNPEQPGG”, the “soluble on expression in E. coli” value was “soluble”. In the case of “SLSFSSKVKSEVCRYDDYSKGEAIAVLSAVMKASGTLALEGNRKISFKIITENPAIARLIFKLLKKYFDIHTEIMMKKSNSLKKNNVYVVSITEDMGVRELLKTVGVMKNEDGIVTLSYDIPEFVVKDDESRKMYIRGAFLGGGSVSNPEKMYHLEFVTHNEDYASNLRDLINTYGLNSKVIQRKNSYVVYIKEGEQVVDLLNIIGAHSSLLELENIRIIKEMRNNINRLVNCETANLSKTVNASVRQIESIKLIEKQIGLSRLPENLREVAKLRLNYPDESLKELGKMLEPPVGKSGVNHRLRKIEKIAEELRKEGR”, the “soluble on expression in E. coli” value is reported as “soluble”. For “SLSPKFKTIIIDDIPSCVEDIKKIILKDKRFEVVATASNGLEGVDQIRLHNPDLVLTDIEMPVMNGFDMVIGLREMLDLTPTIIFITVYDQYAIQAIRCSAFDFILKTGLDQELPMALNEYVKKRAAKQPLLSKQIESLIKSFERNKQIIIRSNICDNFINPMDIIYISTSKNHANSIYLKNGECIATNQSLSHFEKILSETDFFRLNKSNIININFIKEIRKETNAFRRKYVYMKYTEADIKLAIPPGKYAKLFDFIEENSSEG”, the “soluble on expression in E. coli” value was “not soluble”. In the case of “SLSTVELSGTVVKQGYLAKQGHKRKNWKVRRFVLRKDPAFLHYYDPSKEENRPVGGFSLRGSLVSALEDNGVPTGVKGNVQGNLFKVITKDDTHYYIQASSKAERAEWIEAIKKLT”, the “soluble on expression in E. coli” value is reported as “soluble”. For “SLTDSAAPRLHVQALSADCAEAARRWAERLGLPLEADDEAEFAVQVGEQGLQVLQLGADSPGPVRVDFVEGASAHRRKFGGGSGQMIAKAVGVQPGIRPRVLDATAGLGQDGFVLASLGCEVTLVERQPLIAALLEDGLERARRDPDVAPIAARMRLLGGNSADLMRAWDGEAPQVIYLDPMFPHRDKSALVKKEMRLFRPLVGDDLDAPALLQAALALASHRVVVKRPRKAPIIEGPKPGYSLEGKSSRYDIYPKKALGK”, the “soluble on expression in E. coli” value was “soluble”. In the case of “SLVGTPNLLTLDEADATWTLIKDKVIEEHFGPNAVAVPFLSDAACYDLLGVLVKQSRPAHTRLALPGRQGRRALKPVGPLPSLLEQAGSEGAFAHCTREYSPNGRAERAYEETRMLDGQPCKIRLHMGDLRKKVAFLLLPPGQVSLQQTLPWLRSTHSIYVIYQVFSCSWLQLGLTSTAREPQLLRLLRSLPVAFSCLKFSLQSKGVLGPQKPLTKDPLPHGANWVRPNLSIMPPLAPTSASADTTEAADVPPPVPAPPTPPPQEGPEDKPTRFSYKGRNPFWRGPQILSENWLFSPRSPPPGAQGGGPRDPDGHSMSLPLLQGLSSEFDSDD”, the “soluble on expression in E. coli” value is reported as “not soluble”. In the case of “SLVVAIDPGHGGQDSGAVGPTGKLEKNVTLAIGRELARQINATPGMKAYMTRDSDVFIPLPMRAQRARAAKADIFISIHADAADNRAATGSSVYVLSTRGASSQRARWLADKENAADLVGGVRLQKAEPTLANVLLDLAQSGYMKASEDAADHVLGSLKRVANNHKSEVEHANFAVLRTSDMPAMLVETAFISNAYEERRLVDPAFQRQLAAAVLEGVITFFTNQPPPGTLFALRAQAEPATTGGSVITSTH”, the “soluble on expression in E. coli” value is reported as “not soluble”. With “SLYCIEEKIEKALGIKEASLVLKNCNIVNVFSSEIIRGDLAIDGDTIIGIGKYKGKTEIDLSNKYVAPGFIDSHVHIESSMVSPKEFARAVISRGTTTIIVDPHEIANVCGMDGIKYMMEETKNMPLDVFFMLSSCVPATSFETSGAVLKAEDLKELIDSDRVLGLGEMMNYPGVLSREEEVLNKLKLAGSYNKIVDGHAPSVRGNELNAYNLAGIKTDHECSSIEEMNEKIRNGMYIAIREGSAAKNLDILIKGVNAKNERRIMFCADDRHPDDILKSGHMDNCVRRAIYNGIENTAAIRMASINAAECYKLERVGAIAPSYKADLVVLEDLKDVKVNMVIKSGEVVFKDNKHLKDMGSKSDITKVSNTVNIKKVSEENLELKLDTDVCSIISVALNSISTKNVKRKVNLSNGIFKCELNYGINKVAVIERHKKSGSIGIGLVENFGLKRGAIASTVAHDSHNIIVLGNNDEDMVKAVNEIERVGGGITISLDGKIIETLELEIAGLMSNKSMEFVAERVSKMINICHNTLGVNKDIQPFMTLAFLALPVIPEIRITDKGVFDVVNFKFL” the “soluble on expression in E. coli” value was “soluble”. With “SMAAAAVVQIPAGATFLETFKKSFVDVPIDAEKGNAISTAEFLEAAESLTTMFDVLGSIAFSPVKTDMLGNVEKIRKRMLAAPLESQNIQDLVRNELKTKSHTATEGLLWLVRGLEFTCIALSKNIGSTEELADSFRGSYRVTLKPHHSFLVKPIFSAAMSACPYRKDFYAKLGDDEQKVQEELREYLVALDKIVNILKRFLESKEAKW” the “soluble on expression in E. coli” value was “soluble”. With “SMATKIDKEACRAAYNLVRDDGSAVIWVTFKYDGSTIVPGEQGAEYQHFIQQCTDDVRLFAFVRFTTGDAMSKRSKFALITWIGENVSGLQRAKTGTDKTLVKEVVQNFAKEFVISDRKELEEDFIKSELKKAGGANYDAQTE” the “soluble on expression in E. coli” value was “soluble”. With “SMDSRLQRIHAEIKNSLKIDNLDVNRCIEALDELASLQVTMQQAQKHTEMITTLKKIRRFKVSQVIMEKSTMLYNKFKNMFLVGEGDSVLEVLFQ” the “soluble on expression in E. coli” value was “soluble”. With “SMGRRCQAQVSRRISFSASHRLYSKFLSDEENLKLFGKCNNPNGHGHNYKVVVTVHGEIDPATGMVMNLADLKKYMEEAIMQPLDHKNLDMDVPYFADVVSTTENVAVYIWDNLQKVLPVGVLYKVKVYETDNNIVVYKGE” the “soluble on expression in E. coli” value was “soluble”. With “SMNFYSAYQHGFVRVAACTHHTTIGDPAANAASVLDMARACHDDGAALAVFPELTLSGYSIEDVLLQDSLLDAVEDALLDLVTESADLLPVLVVGAPLRHRHRIYNTAVVIHRGAVLGVVPKSYLPTYREFYERRQMAPGDGERGTIRIGGADVAFGTDLLFAASDLPGFVLHVEICEDMFVPMPPSAEAALAGATVLANLSGSPITIGRAEDRRLLARSASARCLAAYVYAAAGEGESTTDLAWDGQTMIWENGALLAESERFPKGVRRSVADVDTELLRSERLRMGTFDDNRRHHRELTESFRRIDFALDPPAGDIGLLREVERFPFVPADPQRLQQDCYEAYNIQVSGLEQRLRALDYPKVVIGVSGGLDSTHALIVATHAMDREGRPRSDILAFALPGFATGEHTKNNAIKLARALGVTFSEIDIGDTARLMLHTIGHPYSVGEKVYDVTFENVQAGLRTDYLFRIANQRGGIVLGTGDLSELALGWSTYGVGDQMSHYNVNAGVPKTLIQHLIRWVISAGEFGEKVGEVLQSVLDTEITPELIPTGEEELQSSEAKVGPFALQDFSLFQVLRYGFRPSKIAFLAWHAWNDAERGNWPPGFPKSERPSYSLAEIRHWLQIFVQRFYSFSQFKRSALPNGPKVSHGGALSPRGDWRAPSDMSARIWLDQIDREVPKG” the “soluble on expression in E. coli” value was “soluble”. For “SMQEKYRLVVVGGGGVGKSALTIQFIQSYFVTDYDPTIEDSYTKQCVIDDRAARLDILDTAGQEEFGAMREQYMRTGEGFLLVFSVTDRGSFEEIYKFQRQILRVKDRDEFPMILIGNKADLDHQRQVTQEEGQQLARQLKVTYMEASAKIRMNVDQAFHELVRVIRKFQEQ”, the “soluble on expression in E. coli” value was “soluble”. With “SMRKFGVVVVGVGRAGSVRMRDLRNPHPSSAFLNLIGFVSRRELGSIDGVQQISLEDALSSQEVEVAYICSESSSHEDYIRQFLNAGKHVLVEYPMTLSLAAAQELWELAEQKGKVLHEEHVELLMEEFAFLKKEVVGKDLLKGSLLFTAGPLEEERFGFPAFSGISRLTWLVSLFGELSLVSATLEERKEDQYMKMTVCLETEKKSPLSWIEEKGPGLKRNRYLSFHFKSGSLENVPNVGVNKNIFLKDQNIFVQKLLGQFSEKELAAEKKRILHCLGLAEEIQKYCCSRK” the “soluble on expression in E. coli” value was “soluble”. For “SMTTLFSKIKEVTELAAVSGHEAPVRAYLREKLTPHVDEVVTDGLGGIFGIKHSEAVDAPRVLVASHMDEVGFMVSEIKPDGTFRVVEIGGWNPMVVSSQRFKLLTRDGHEIPVISGSVPPHLTRGKGGPTMPAIADIVFDGGFADKAEAESFGIRPGDTIVPDSSAILTANEKNIISKAWDNRYGVLMVSELAEALSGQKLGNELYLGSNVQEEVGLRGAHTSTTKFDPEVFLAVDCSPAGDVYGGQGKIGDGTLIRFYDPGHLLLPGMKDFLLTTAEEAGIKYQYYCGKGGTDAGAAHLKNGGVPSTTIGVCARYIHSHQTLYAMDDFLEAQAFLQALVKKLDRSTVDLIKHY”, the “soluble on expression in E. coli” value was “soluble”.
